Experimental findings from patent US20130058955A1 (Genentech, published 2013) are described below.

Changes are numbered by the printed parent chain. Values joined by “and” are separate entries in the source; they are usually repeats but may differ in a detail not shown here. Equal entries are not always repeated. Where two headings read alike, the source gives them in different places.

Test [1] concerns the target T1, linear diubiquitin (Boston Biochem) (human, UniProt P0CG48 1-152).
T1 construct: Bought product
Nature of the test: western blot, 1 ug/mL IgG, LI-COR Odyssey quantification; Ub2 bands seen at 333 (faint) and 1000 ng. The method, then:
(§1) Gels were transferred at 30 V constant for 1 hour by wet transfer in 10% methanol and 1× NuPAGE transfer buffer (Invitrogen) to 0.2 μm nitrocellulose (Invitrogen). Non-specific binding sites on the membranes were blocked by incubation in 5% milk in PBST for 1 hour at 25° C. with shaking. […] The membranes were washed three times in PBST with shaking. The IgGs were detected by incubating the membrane in a 1:10,000 dilution of a goat anti-human Fc fragment-specific IR Dye 800CW-conjugated secondary antibody (Rockland Immunochemicals) in 5% milk in PBST for 30 minutes at 25° C. with shaking. The membranes were then washed three times in PBST followed by one wash in PBS. The secondary antibody was detected and quantified using the L1-COR Odyssey infrared imaging system (L1-COR Biosciences).

The target of test [2] is T2, monoubiquitin (Boston Biochem) (human, UniProt P0CG48 1-76).
T2 construct: Bought product
In words: phage specificity ELISA, 1 ug/mL coated antigen, anti-M13-HRP. The procedure: (§2) The panel of ubiquitin proteins was immobilized on 96-well Maxisorb immunoplates (NUNC) (see FIGS. 7A and 7B). Plates were coated at 4° C. overnight with 1 μg/mL of each protein in 50 mM sodium carbonate buffer, pH 9.6. The coated plates were blocked with 200 μL/well of 2.5% milk in PBST for one hour at 25° C. with shaking. Six two-fold serial dilutions of phage from OD₂₆₈=1.0 to OD₂₆₈=0.03 were made in 2.5% milk in PBST. After one hour, the blocking buffer was dumped off of the plate and 100 μL of the phage serial dilutions was added. Plates were incubated at 25° C. for one hour with shaking. The plate was then washed six times with PBST using a plate washer. A 1:5,000 dilution of an anti-M13 horseradish peroxidase (HRP)-conjugated secondary antibody (GE Healthcare) in PBST was used for detection of phage binding. […] The plate was then washed six times with PBST using a plate washer and twice manually with PBS. Bound secondary antibody was detected using a TMB substrate (KPL) followed by quenching with an equal volume of 1 M phosphoric acid. The absorbance was read at 450 nm.
(ELISA stands for enzyme-linked immunosorbent assay.)

For test [3], the target named is T3, K48-linked diubiquitin (Boston Biochem) (human, UniProt P0CG48 1-76, isopeptide bond between the C-terminus of one ubiquitin and Lys48 of the other).
T3 construct: Bought product; also called K48 diUb
The test is described as above. The method, then:
as §2

Test [4] has as its target T4, K11-linked diubiquitin (Genentech) (human, UniProt P0CG48 1-76, isopeptide bond between the C-terminus of one ubiquitin and Lys11 of the other).
T4 construct: also called K11 diUb
The description is as above. The procedure:
as §2

The target of test [5] is T1, linear diubiquitin (Boston Biochem). Nature of the test: phage IC50 competition ELISA with soluble linear diubiquitin. The procedure: An initial titer ELISA was done to determine the amount of phage at which a signal of OD₄₅₀=0.5 would be achieved. […] The coated plates were blocked with 200 μL/well of 2.5% milk in PBST for one hour at 25° C. with shaking. Twelve two-fold serial dilutions of the phage were made in 2.5% milk in PBST from OD₂₆₈=4.0 to OD₂₆₈=0.002. After one hour, the blocking buffer was dumped off of the plate and 100 μL/well of each phage dilution was added and incubated at 25° C. for 15 minutes with shaking. The plate was then washed six times with PBST using a plate washer. A 1:5000 dilution of an anti-M13 phage-HRP-conjugated secondary antibody (GE Healthcare) in PBST was used for detection of phage binding. 100 μL/well of the secondary dilution was added and the plate was incubated at 25° C. for 30 minutes with shaking. The plate was then washed 12 times with PBST using a plate washer and twice with PBS manually. Bound secondary antibody was detected using a TMB substrate (KPL) followed by quenching with an equal volume of 1 M phosphoric acid.

Test [6] addresses T5, K63-linked diubiquitin (Boston Biochem) (human, UniProt P0CG48 1-76, isopeptide bond between the C-terminus of one ubiquitin and Lys63 of the other).
T5 construct: Bought product; also called K63 diUb
In words: western blot, 1 ug/mL IgG, LI-COR Odyssey.

Test [7] addresses T1, linear diubiquitin (Boston Biochem). In words: western blot, 1 ug/mL IgG, LI-COR Odyssey quantification; Ub2 bands seen at 111 (faint), 333 and 1000 ng. The procedure: as §1
A general note: A western blot detects proteins with antibodies after separation by electrophoresis.

For test [8], the target named is T5, K63-linked diubiquitin (Boston Biochem). Nature of the test: western blot, 1 ug/mL IgG, LI-COR Odyssey. The method, then: as §1
The source holds these as a separate data set.

B1: 1E3 IgG (antibody, V domains shown)
VH: EVQLVESGGGLVQPGGSLRLSCAASGFTFSNTYISWVRQAPGKGLEWVASITPSSGSTDYADSVKGRFTISADTSKNTAYLQMNSLRAEDTAVYYCARTWLLRWVMDYWGQGTLVTVSS
VL: DIQMTQSPSSLSASVGDRVTITCRASQDVSTAVAWYQQKPGKAPKLLIYSASFLYSGVPSRFSGSGSGTDFTLTISSLQPEDFATYYCQQSYTTPPTFGQGTKVEIK
notes: also called parental 1E3
Take B1: the “signal of the Ub2 band at 1000 ng linear diUb (number under the arrow)” value (“signal of the Ub2 band” for short) in test [1] turned out to be 8.7.

B2: 3F5, Fab displayed on phage (Fab, V domains shown)
VH: B1 VH with S57Q
VL: B1 VL
notes: Monovalent Fab on M13 phage
Turning to B2, the binding result in test [2], in test [3] and in test [4] was “no binding (tested: phage OD268 1)” throughout. The IC50 (usually the concentration needed to halve the response being measured) in test [5] was 0.012 µM and 0.009 µM and 0.013 µM.

B3: 4G7, Fab displayed on phage (Fab, name in Kabat numbering, V domains shown)
VH: B1 VH with Y108G
VL: B1 VL
notes: Heavy chain mutant of 1E3 (H3); Monovalent Fab on M13 phage
Consider B3, for which the binding result in test [2], in test [3] and in test [4] was “no binding (tested: phage OD268 1)” in each case. In addition, in test [5], the IC50 was 0.023 µM and 0.016 µM and 0.019 µM.

B4: 1F11/3E4 double mutant, Fab displayed on phage (Fab, name in Kabat numbering, V domains shown)
VH: B1 VH with I34M
VL: B1 VL with S52K
For B4, the IC50 in test [5] is 0.012 µM.

B5: 2C11, Fab displayed on phage (Fab, name in Kabat numbering, V domains shown)
VH: B1 VH
VL: B1 VL with T94Q
notes: Light chain mutant of 1E3 (CDR L3); Monovalent Fab on M13 phage
Consider B5, for which the binding result in test [2], in test [3] and in test [4] was “no binding (tested: phage OD268 1)” throughout. Also, the half-maximal inhibitory concentration (IC50) in test [5] was 0.02 µM.

B6: 2C11/3E4 double mutant, Fab displayed on phage (Fab, name in Kabat numbering, V domains shown)
VH: B1 VH with I34M
VL: B1 VL with T94Q
In test [5], B6 gave an IC50 of 0.024 µM.

B7: 1F11/4G7 double mutant, Fab displayed on phage (Fab, name in Kabat numbering, V domains shown)
VH: B1 VH with Y108G
VL: B1 VL with S52K
Regarding B7, the IC50 in test [5] stood at 0.013 µM.

B8: 2C11/3F5 IgG (antibody, name in Kabat numbering, V domains shown)
VH: B1 VH with S57Q
VL: B1 VL with T94Q
For B8, the binding result in test [6] was “no binding (tested: 1000 ng per lane)”. Moreover, in test [7], the “signal of the Ub2 band” value was 13.1.

B9: 1F11, Fab displayed on phage (Fab, V domains shown)
VH: B1 VH
VL: B1 VL with S52K
notes: Monovalent Fab on M13 phage
In turn, B9 came in with a half-maximal inhibitory concentration (IC50) in test [5] of 0.014 µM.

B10: 1F11/3F5 IgG (antibody, V domains shown)
VH: B1 VH with S57Q
VL: B1 VL with S52K
notes: also called double mutant 1F11/3F5
As for B10, in test [8], the binding result was “no binding (tested: 1000 ng per lane)”.

B11: 3E4, Fab displayed on phage (Fab, name in Kabat numbering, V domains shown)
VH: B1 VH with I34M
VL: B1 VL
notes: Heavy chain mutant of 1E3 (CDR H1); Monovalent Fab on M13 phage
Consider B11, for which the binding result in test [2], in test [3] and in test [4] was “no binding (tested: phage OD268 1)” each time. Further, the IC50 in test [5] was 0.044 µM and 0.033 µM and 0.026 µM.

B12: 2H5/3E4 double mutant, Fab displayed on phage (Fab, name in Kabat numbering, V domains shown)
VH: B1 VH with I34M
VL: B1 VL with T94N
Molecule B12 gave a half-inhibitory concentration (IC50) in test [5] of 0.026 µM.

B13: 1F11/2C11/3F5 triple mutant IgG (antibody, name in Kabat numbering, V domains shown)
VH: B1 VH with S57Q
VL: B1 VL with S52K, T94Q
notes: human kappa IgG1
For the molecule B13, the binding result in test [6] was “no binding (tested: 1000 ng per lane)”.

B14: 2H5/4G7 double mutant, Fab displayed on phage (Fab, name in Kabat numbering, V domains shown)
VH: B1 VH with Y108G
VL: B1 VL with T94N
Take B14: the IC50 in test [5] is 0.023 µM.

B15: 2C11 IgG (antibody, name in Kabat numbering, V domains shown)
VH: B1 VH
VL: B1 VL with T94Q
Take B15: in test [1], the “signal of the Ub2 band” value is 10.8. Further, the binding result in test [8] is recorded as “no binding (tested: 1000 ng per lane)”.

B16: 1F11 IgG (antibody, V domains shown)
VH: B1 VH
VL: B1 VL with S52K
Take B16: the “signal of the Ub2 band” value in test [1] came out at 13.1.

B17: 2H5 IgG (antibody, name in Kabat numbering, V domains shown)
VH: B1 VH
VL: B1 VL with T94N
Turning to B17, in test [1], the “signal of the Ub2 band” value is 10.4. For the same molecule, the binding result in test [8] was “no binding (tested: 1000 ng per lane)”.

B18: 2H5/3F5 IgG (antibody, name in Kabat numbering, V domains shown)
VH: B1 VH with S57Q
VL: B1 VL with T94N
B18: in test [6], the binding result was “no binding (tested: 1000 ng per lane)”. In addition, the “signal of the Ub2 band” value in test [7] was determined as 16.7.

B19: 3F5 IgG (antibody, V domains shown)
VH: B1 VH with S57Q
VL: B1 VL
For the molecule B19, in test [7], the “signal of the Ub2 band” value was 16.4. Further, in test [8], the binding result was “no binding (tested: 1000 ng per lane)”.

B20: 2H5, Fab displayed on phage (Fab, name in Kabat numbering, V domains shown)
VH: B1 VH
VL: B1 VL with T94N
notes: as for B5
Take B20: the binding result in test [2], in test [3] and in test [4] was “no binding (tested: phage OD268 1)” throughout. In test [5], the half-maximal inhibitory concentration (IC50) was found to be 0.017 µM.

B21: 1F11/2H5/3F5 triple mutant IgG (antibody, name in Kabat numbering, V domains shown)
VH: B1 VH with S57Q
VL: B1 VL with S52K, T94N
notes: human kappa IgG1
As for B21, in test [6], the binding result was “no binding (tested: 1000 ng per lane)”.

B22: 2C11/4G7 double mutant, Fab displayed on phage (Fab, name in Kabat numbering, V domains shown)
VH: B1 VH with Y108G
VL: B1 VL with T94Q
Molecule B22 displayed an IC50 in test [5] of 0.031 µM.
